According to patent US20250145694A1 (GUANGDONG FEIPENG BIOLOGICAL, published 2025):

Biological target: T1, CTNI quality control recombinant antigen (human, UniProt P19429 1-210, limits assumed)
T1 construct: Recombinant antigen produced by the applicant; also called CTNI quality control recombinant protein (antigen produced by the company); cardiac troponin I
Assay: BLI, antibody on AMC sensor, cTnI in solution
Experimental: With an AMC sensor, the purified antibody was diluted to 10 μg/ml with PBST, and CTNI quality control recombinant protein (antigen produced by the company) was gradient diluted with PBST to 769.2 nmol/ml, 384.6 nmol/ml, 192.3 nmol/ml, 96.2 nmol/ml, 48.1 nmol/ml, 24 nmol/ml, 12 nmol/ml, and 0 nmol/ml.

T1 sequence (P19429 whole entry): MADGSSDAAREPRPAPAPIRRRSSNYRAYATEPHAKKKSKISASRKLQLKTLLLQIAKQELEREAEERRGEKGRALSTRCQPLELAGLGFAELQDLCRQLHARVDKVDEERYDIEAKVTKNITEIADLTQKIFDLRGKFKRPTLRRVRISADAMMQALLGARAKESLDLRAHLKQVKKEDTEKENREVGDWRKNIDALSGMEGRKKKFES

Binder	Kd	koff	kon
Mutation 1-7 (antibody, assembled FR/CDR/constant) heavy: EVQMVESGGGLLKPGGSLKLSCAASGFTFSNYAMSWVRQTPEKRLEWVATISSGGSYSYYPDSVKGRFTISRDNAKNTLYLQMLSLRSEDTAMYYCARRDNYFGSTFMDYWGQGSSVTVSSAKTTPPSVYPLAPGSAAQTNSMVTLGCLVKGYFPEPVTVTWNSGSLSSGVHTFPAVLQSDLYTLSSSVTVPSSTWPSQTVTCNVAHPASSTKVDKKIVPRDCGCKPCICTVPEVSSVFIFPPKPKDVLTITLTPKVTCVVVDISKDDPEVQFSWFVDDVEVHTAQTKPREEQFNSTFRSVSELPIMHQDWLNGKEFKCRVNSAAFPAPIEKTISKTKGRPKAPQVYTIPPPKEQMAKDKVSLTCMITNFFPEDITVEWQWNGQPAENYKNTQPIMDTDGSYFVYSKLNVQKSNWEAGNTFTCSVLHEGLHNHHTEKSLSHSPG light: DIQMTQTSSSLSASLGDRVTISCRASQEITNYLNWYQQKPDGTIKLLIYYTSRIHSGVSSRFSGSGSGTDYSLTISNLEQEDIATYFCQQGHTIPLTFDTGTKLELKRADAAPTVSIFPPSSEQLTSGGASVVCFLNNFYPKDINVKWKIDGSERQNGVLNSWTDQDSKDSTYSMSSTLTLTKDEYERHNSYTCEATHKTSTSPIVKSFNRNEC	4.71 nM	0.000186 s⁻¹	39400 M⁻¹ s⁻¹
Mutation 1-8 (antibody, assembled FR/CDR/constant) heavy: EVQMVESGGGLLKPGGSLKLSCAASGFTYSNYAMSWVRQTPEKRLEWVATISSGGSYSYYPDSVKGRFTISRDNAKNTLYLQMLSLRSEDTAMYYCARRDNYFGSSFMDYWGQGSSVTVSSAKTTPPSVYPLAPGSAAQTNSMVTLGCLVKGYFPEPVTVTWNSGSLSSGVHTFPAVLQSDLYTLSSSVTVPSSTWPSQTVTCNVAHPASSTKVDKKIVPRDCGCKPCICTVPEVSSVFIFPPKPKDVLTITLTPKVTCVVVDISKDDPEVQFSWFVDDVEVHTAQTKPREEQFNSTFRSVSELPIMHQDWLNGKEFKCRVNSAAFPAPIEKTISKTKGRPKAPQVYTIPPPKEQMAKDKVSLTCMITNFFPEDITVEWQWNGQPAENYKNTQPIMDTDGSYFVYSKLNVQKSNWEAGNTFTCSVLHEGLHNHHTEKSLSHSPG light: DIQMTQTSSSLSASLGDRVTISCRASQEITNYLNWYQQKPDGTIKLLIYYTSRIHSGVSSRFSGSGSGTDYSLTISNLEQEDIATYFCQQGHTIPLTFDTGTKLELKRADAAPTVSIFPPSSEQLTSGGASVVCFLNNFYPKDINVKWKIDGSERQNGVLNSWTDQDSKDSTYSMSSTLTLTKDEYERHNSYTCEATHKTSTSPIVKSFNRNEC	6.81 nM	0.000667 s⁻¹	98000 M⁻¹ s⁻¹
Mutation 1-3 (antibody, assembled FR/CDR/constant) heavy: EVQMVESGGGLLKPGGSLKLSCAASGFTFSNYAMSWVRQTPEKRLEWVATISSGGSYSYYPDSVKGRFTISRDNAKNTLYLQMLSLRSEDTAMYYCARRDNYPGSSFMDYWGQGSSVTVSSAKTTPPSVYPLAPGSAAQTNSMVTLGCLVKGYFPEPVTVTWNSGSLSSGVHTFPAVLQSDLYTLSSSVTVPSSTWPSQTVTCNVAHPASSTKVDKKIVPRDCGCKPCICTVPEVSSVFIFPPKPKDVLTITLTPKVTCVVVDISKDDPEVQFSWFVDDVEVHTAQTKPREEQFNSTFRSVSELPIMHQDWLNGKEFKCRVNSAAFPAPIEKTISKTKGRPKAPQVYTIPPPKEQMAKDKVSLTCMITNFFPEDITVEWQWNGQPAENYKNTQPIMDTDGSYFVYSKLNVQKSNWEAGNTFTCSVLHEGLHNHHTEKSLSHSPG light: DIQMTQTSSSLSASLGDRVTISCRASQDITNYLNWYQQKPDGTIKLLIYYTSRLHSGVSSRFSGSGSGTDYSLTISNLEQEDIATYFCQQGHTLPLTFDTGTKLELKRADAAPTVSIFPPSSEQLTSGGASVVCFLNNFYPKDINVKWKIDGSERQNGVLNSWTDQDSKDSTYSMSSTLTLTKDEYERHNSYTCEATHKTSTSPIVKSFNRNEC	4.58 nM	5.73e-05 s⁻¹	12500 M⁻¹ s⁻¹
Mutation 1-6 (antibody, assembled FR/CDR/constant) heavy: EVQMVESGGGLLKPGGSLKLSCAASGFTYSNYAMSWVRQTPEKRLEWVATISSGGSYSFYPDSVKGRFTISRDNAKNTLYLQMLSLRSEDTAMYYCARRDNYYGSSFMDYWGQGSSVTVSSAKTTPPSVYPLAPGSAAQTNSMVTLGCLVKGYFPEPVTVTWNSGSLSSGVHTFPAVLQSDLYTLSSSVTVPSSTWPSQTVTCNVAHPASSTKVDKKIVPRDCGCKPCICTVPEVSSVFIFPPKPKDVLTITLTPKVTCVVVDISKDDPEVQFSWFVDDVEVHTAQTKPREEQFNSTFRSVSELPIMHQDWLNGKEFKCRVNSAAFPAPIEKTISKTKGRPKAPQVYTIPPPKEQMAKDKVSLTCMITNFFPEDITVEWQWNGQPAENYKNTQPIMDTDGSYFVYSKLNVQKSNWEAGNTFTCSVLHEGLHNHHTEKSLSHSPG light: DIQMTQTSSSLSASLGDRVTISCRASQDITNYLNWYQQKPDGTIKLLIYYTSRLHSGVSSRFSGSGSGTDYSLTISNLEQEDIATYFCQQGNTIPLTFDTGTKLELKRADAAPTVSIFPPSSEQLTSGGASVVCFLNNFYPKDINVKWKIDGSERQNGVLNSWTDQDSKDSTYSMSSTLTLTKDEYERHNSYTCEATHKTSTSPIVKSFNRNEC	9.81 nM	0.000275 s⁻¹	28000 M⁻¹ s⁻¹
Mutation 1-4 (antibody, assembled FR/CDR/constant; Same printed sites as Mutation 1-40) heavy: EVQMVESGGGLLKPGGSLKLSCAASGFTYSNYAMSWVRQTPEKRLEWVATISSGGSYSYYPDSVKGRFTISRDNAKNTLYLQMLSLRSEDTAMYYCARRDNYFGSTFMDYWGQGSSVTVSSAKTTPPSVYPLAPGSAAQTNSMVTLGCLVKGYFPEPVTVTWNSGSLSSGVHTFPAVLQSDLYTLSSSVTVPSSTWPSQTVTCNVAHPASSTKVDKKIVPRDCGCKPCICTVPEVSSVFIFPPKPKDVLTITLTPKVTCVVVDISKDDPEVQFSWFVDDVEVHTAQTKPREEQFNSTFRSVSELPIMHQDWLNGKEFKCRVNSAAFPAPIEKTISKTKGRPKAPQVYTIPPPKEQMAKDKVSLTCMITNFFPEDITVEWQWNGQPAENYKNTQPIMDTDGSYFVYSKLNVQKSNWEAGNTFTCSVLHEGLHNHHTEKSLSHSPG light: DIQMTQTSSSLSASLGDRVTISCRASQEITNYLNWYQQKPDGTIKLLIYYTSRIHSGVSSRFSGSGSGTDYSLTISNLEQEDIATYFCQQGNTLPLTFDTGTKLELKRADAAPTVSIFPPSSEQLTSGGASVVCFLNNFYPKDINVKWKIDGSERQNGVLNSWTDQDSKDSTYSMSSTLTLTKDEYERHNSYTCEATHKTSTSPIVKSFNRNEC	7.1 nM	0.00053 s⁻¹	74600 M⁻¹ s⁻¹

Now those with a lower Kd, led by results:

Kd	koff	kon	Binder
3.47 nM	0.000124 s⁻¹	35800 M⁻¹ s⁻¹	Mutation 1-1 (antibody, assembled FR/CDR/constant) heavy: EVQMVESGGGLLKPGGSLKLSCAASGFTFSNYAMSWVRQTPEKRLEWVATISSGGSYSFYPDSVKGRFTISRDNAKNTLYLQMLSLRSEDTAMYYCARRDNYYGSSFMDYWGQGSSVTVSSAKTTPPSVYPLAPGSAAQTNSMVTLGCLVKGYFPEPVTVTWNSGSLSSGVHTFPAVLQSDLYTLSSSVTVPSSTWPSQTVTCNVAHPASSTKVDKKIVPRDCGCKPCICTVPEVSSVFIFPPKPKDVLTITLTPKVTCVVVDISKDDPEVQFSWFVDDVEVHTAQTKPREEQFNSTFRSVSELPIMHQDWLNGKEFKCRVNSAAFPAPIEKTISKTKGRPKAPQVYTIPPPKEQMAKDKVSLTCMITNFFPEDITVEWQWNGQPAENYKNTQPIMDTDGSYFVYSKLNVQKSNWEAGNTFTCSVLHEGLHNHHTEKSLSHSPG light: DIQMTQTSSSLSASLGDRVTISCRASQEITNYLNWYQQKPDGTIKLLIYYTSRIHSGVSSRFSGSGSGTDYSLTISNLEQEDIATYFCQQGHTLPLTFDTGTKLELKRADAAPTVSIFPPSSEQLTSGGASVVCFLNNFYPKDINVKWKIDGSERQNGVLNSWTDQDSKDSTYSMSSTLTLTKDEYERHNSYTCEATHKTSTSPIVKSFNRNEC
2.43 nM	0.000129 s⁻¹	53200 M⁻¹ s⁻¹	Mutation 1-2 (antibody, assembled FR/CDR/constant) heavy: EVQMVESGGGLLKPGGSLKLSCAASGFTYSNYAMSWVRQTPEKRLEWVATISSGGSYSFYPDSVKGRFTISRDNAKNTLYLQMLSLRSEDTAMYYCARRDNYPGSTFMDYWGQGSSVTVSSAKTTPPSVYPLAPGSAAQTNSMVTLGCLVKGYFPEPVTVTWNSGSLSSGVHTFPAVLQSDLYTLSSSVTVPSSTWPSQTVTCNVAHPASSTKVDKKIVPRDCGCKPCICTVPEVSSVFIFPPKPKDVLTITLTPKVTCVVVDISKDDPEVQFSWFVDDVEVHTAQTKPREEQFNSTFRSVSELPIMHQDWLNGKEFKCRVNSAAFPAPIEKTISKTKGRPKAPQVYTIPPPKEQMAKDKVSLTCMITNFFPEDITVEWQWNGQPAENYKNTQPIMDTDGSYFVYSKLNVQKSNWEAGNTFTCSVLHEGLHNHHTEKSLSHSPG light: DIQMTQTSSSLSASLGDRVTISCRASQEITNYLNWYQQKPDGTIKLLIYYTSRIHSGVSSRFSGSGSGTDYSLTISNLEQEDIATYFCQQGNTIPLTFDTGTKLELKRADAAPTVSIFPPSSEQLTSGGASVVCFLNNFYPKDINVKWKIDGSERQNGVLNSWTDQDSKDSTYSMSSTLTLTKDEYERHNSYTCEATHKTSTSPIVKSFNRNEC
0.83 nM	0.000807 s⁻¹	972000 M⁻¹ s⁻¹	Mutation 1-5 (antibody, assembled FR/CDR/constant) heavy: EVQMVESGGGLLKPGGSLKLSCAASGFTFSNYAMSWVRQTPEKRLEWVATISSGGSYSFYPDSVKGRFTISRDNAKNTLYLQMLSLRSEDTAMYYCARRDNYFGSSFMDYWGQGSSVTVSSAKTTPPSVYPLAPGSAAQTNSMVTLGCLVKGYFPEPVTVTWNSGSLSSGVHTFPAVLQSDLYTLSSSVTVPSSTWPSQTVTCNVAHPASSTKVDKKIVPRDCGCKPCICTVPEVSSVFIFPPKPKDVLTITLTPKVTCVVVDISKDDPEVQFSWFVDDVEVHTAQTKPREEQFNSTFRSVSELPIMHQDWLNGKEFKCRVNSAAFPAPIEKTISKTKGRPKAPQVYTIPPPKEQMAKDKVSLTCMITNFFPEDITVEWQWNGQPAENYKNTQPIMDTDGSYFVYSKLNVQKSNWEAGNTFTCSVLHEGLHNHHTEKSLSHSPG light: DIQMTQTSSSLSASLGDRVTISCRASQEITNYLNWYQQKPDGTIKLLIYYTSRIHSGVSSRFSGSGSGTDYSLTISNLEQEDIATYFCQQGHTLPLTFDTGTKLELKRADAAPTVSIFPPSSEQLTSGGASVVCFLNNFYPKDINVKWKIDGSERQNGVLNSWTDQDSKDSTYSMSSTLTLTKDEYERHNSYTCEATHKTSTSPIVKSFNRNEC
